This note sets out measurements from paper PMC5445279, “Proanthocyanidin accumulation and transcriptional responses in the seed coat of cranberry beans (Phaseolus vulgaris L.) with different susceptibility to postharvest darkening” (BMC Plant Biology, 2017).

Series [1] deals with T1, PvANR1 (Phaseolus vulgaris, UniProt A0A1V0E4B3).
T1 construct: gene ANR1; full ORF (1014 bp PCR product) from seed coat cDNA, pET-30b, E. coli BL21; N-terminal His6 tag cut by enterokinase; forward primer encodes MATVKKIGK
The experiment in a line: HPLC-DAD of epicatechin formation, substrate-inhibition fit. In kind it is biochemical. The settings on record: substrate inhibition by cyanidin, product epicatechin; 800 μM NADPH, 50 mM HEPES pH 7.0, 30 °C; apparent. The text has this: (§1) HPLC-DAD of epicatechin formation, substrate-inhibition fit on PvANR1

Substrate in series [2]: NC(=O)C1=CN([C@@H]2O[C@H](COP(=O)(O)OP(=O)(O)OC[C@H]3O[C@@H](n4cnc5c(N)ncnc54)[C@H](OP(=O)(O)O)[C@@H]3O)[C@@H](O)[C@H]2O)C=CC1
The experiment in a line: HPLC-DAD of epicatechin formation, Hill fit. It counts as biochemical, Phaseolus vulgaris. To be noted: product epicatechin, 100 μM cyanidin, 50 mM HEPES pH 7.0, 30 °C, Hill coefficient 2.5, varied: cofactor. The text has this: HPLC-DAD of epicatechin formation, Hill fit on PvANR1

Substrate in series [3]: Oc1cc(O)c2cc(O)c(-c3ccc(O)c(O)c3)[o+]c2c1
The experiment in a line: HPLC-DAD of epicatechin formation, substrate-inhibition fit. In kind it is biochemical, Phaseolus vulgaris. To be noted: product epicatechin, 800 μM NADPH, 50 mM HEPES pH 7.0, 30 °C, apparent, substrate inhibition model.
Excerpt: as §1

By Vmax is commonly meant the rate approached at saturating substrate. The kcat is the number of substrate molecules converted per active site and unit of time at saturation. The term kcat/Km denotes the turnover number divided by the Michaelis constant.

For the molecule `Oc1cc(O)c2cc(O)c(-c3ccc(O)c(O)c3)[o+]c2c1` [cyanidin], the “K i” value in series [1] came out at 631.5 ± 119.9 µM.

B1: PvANR1 (Phaseolus vulgaris) (protein)
chain: MATVKKIGKKACVIGGSGFMASCLVKQLLHKGYAVNTTVRDPDNAKKISHLLALQSLGDLNIFGADLTGERDFDAPIAGCELVFQLATPVNFASEDPENDMIKPAISGVLNVLKACARAKGVKRVILTSSAAAVTINPVKDTGLVMDESNWTDVEFLNTAKPPTWGYPVSKALAEKAAWKFAEENHIDLITVIPTLTTGPSLTPDIPSSVGLATSLITGNDFLINALKGMQFLSGSISITHVEDICRAHIFVAENESASGRYIVSSHSTSVPELAKFLSKRYPQYKVPTEFDDCPSKAKLTISSEKLVKEGFSFKYGIEEIYDQSVEYLKSKGALKN
notes: full ORF (1014 bp PCR product) from seed coat cDNA, pET-30b, E. coli BL21; N-terminal His6 tag cut by enterokinase; forward primer encodes MATVKKIGK
Turning to B1, in series [2], the K0.5 turned out to be 103.5 ± 7.4 µM, the Vmax was determined as 0.00334 µmol/min/mg, the turnover number (kcat) turned out to be 0.0021 ± 0.0001 s⁻¹ and the specificity constant (kcat/Km) stood at 20.1 ± 0.49 M⁻¹ s⁻¹. In series [3], the K0.5 turned out to be 114.2 ± 19.0 µM, the maximal velocity (Vmax) came out at 0.0116 µmol/min/mg, the kcat is 0.0072 ± 0.0007 s⁻¹ and the catalytic efficiency (kcat/Km) turned out to be 65.4 ± 13.8 M⁻¹ s⁻¹.
